Columns and labels:
Experiment in all cases: cell microarray
ADGRG7 = target: T1, ADGRG7 (human, UniProt Q96K78)
T1 sequence (looked up): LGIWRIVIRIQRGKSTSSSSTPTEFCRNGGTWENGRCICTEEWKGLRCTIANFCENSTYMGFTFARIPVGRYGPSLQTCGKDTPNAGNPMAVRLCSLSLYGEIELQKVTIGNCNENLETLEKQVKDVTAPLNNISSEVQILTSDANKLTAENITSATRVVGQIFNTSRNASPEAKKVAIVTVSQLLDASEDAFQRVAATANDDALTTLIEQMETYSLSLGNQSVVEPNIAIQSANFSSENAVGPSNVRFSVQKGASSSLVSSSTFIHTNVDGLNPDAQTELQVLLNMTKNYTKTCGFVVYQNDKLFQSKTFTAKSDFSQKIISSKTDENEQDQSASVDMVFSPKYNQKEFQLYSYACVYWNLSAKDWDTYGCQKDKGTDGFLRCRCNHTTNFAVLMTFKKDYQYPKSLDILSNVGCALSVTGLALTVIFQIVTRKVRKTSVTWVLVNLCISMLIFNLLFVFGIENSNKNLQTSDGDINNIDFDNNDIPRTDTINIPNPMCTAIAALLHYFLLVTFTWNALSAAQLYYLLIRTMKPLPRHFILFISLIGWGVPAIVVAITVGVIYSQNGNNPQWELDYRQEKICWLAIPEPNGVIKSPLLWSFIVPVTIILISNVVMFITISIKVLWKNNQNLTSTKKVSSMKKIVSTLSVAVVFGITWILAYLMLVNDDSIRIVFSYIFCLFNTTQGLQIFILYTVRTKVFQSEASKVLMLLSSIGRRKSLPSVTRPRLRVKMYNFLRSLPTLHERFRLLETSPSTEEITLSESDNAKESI

KCNAB2 = target: T2, KCNAB2 (human, UniProt Q13303)
T2 sequence (looked up): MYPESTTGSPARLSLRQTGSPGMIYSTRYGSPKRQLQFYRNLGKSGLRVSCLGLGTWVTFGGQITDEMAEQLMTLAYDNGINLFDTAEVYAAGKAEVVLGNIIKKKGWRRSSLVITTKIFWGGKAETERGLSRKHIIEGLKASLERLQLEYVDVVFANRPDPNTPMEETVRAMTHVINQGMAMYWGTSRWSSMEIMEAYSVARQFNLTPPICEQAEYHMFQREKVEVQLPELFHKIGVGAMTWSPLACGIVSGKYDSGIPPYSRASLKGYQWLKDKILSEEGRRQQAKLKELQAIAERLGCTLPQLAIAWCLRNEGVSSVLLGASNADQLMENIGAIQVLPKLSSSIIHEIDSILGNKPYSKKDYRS

TTYH3 V1 = target: T3, TTYH3 V1 (human, UniProt Q9C0H2)
T3 sequence (looked up): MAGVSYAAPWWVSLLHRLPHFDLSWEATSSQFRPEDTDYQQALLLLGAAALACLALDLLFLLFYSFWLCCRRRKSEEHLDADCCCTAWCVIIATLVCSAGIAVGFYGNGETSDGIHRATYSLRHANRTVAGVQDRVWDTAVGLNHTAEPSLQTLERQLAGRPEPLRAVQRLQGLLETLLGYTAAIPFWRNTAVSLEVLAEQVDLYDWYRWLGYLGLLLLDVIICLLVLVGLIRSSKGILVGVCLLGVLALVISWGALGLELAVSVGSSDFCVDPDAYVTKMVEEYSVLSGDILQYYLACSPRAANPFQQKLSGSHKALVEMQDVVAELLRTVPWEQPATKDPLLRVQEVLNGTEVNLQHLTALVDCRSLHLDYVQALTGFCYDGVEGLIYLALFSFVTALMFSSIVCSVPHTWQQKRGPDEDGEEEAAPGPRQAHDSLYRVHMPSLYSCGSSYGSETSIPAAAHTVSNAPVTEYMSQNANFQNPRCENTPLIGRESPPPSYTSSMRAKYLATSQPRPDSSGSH

SLC26A4 = target: T4, SLC26A4 (human, UniProt O43511)
T4 sequence (looked up): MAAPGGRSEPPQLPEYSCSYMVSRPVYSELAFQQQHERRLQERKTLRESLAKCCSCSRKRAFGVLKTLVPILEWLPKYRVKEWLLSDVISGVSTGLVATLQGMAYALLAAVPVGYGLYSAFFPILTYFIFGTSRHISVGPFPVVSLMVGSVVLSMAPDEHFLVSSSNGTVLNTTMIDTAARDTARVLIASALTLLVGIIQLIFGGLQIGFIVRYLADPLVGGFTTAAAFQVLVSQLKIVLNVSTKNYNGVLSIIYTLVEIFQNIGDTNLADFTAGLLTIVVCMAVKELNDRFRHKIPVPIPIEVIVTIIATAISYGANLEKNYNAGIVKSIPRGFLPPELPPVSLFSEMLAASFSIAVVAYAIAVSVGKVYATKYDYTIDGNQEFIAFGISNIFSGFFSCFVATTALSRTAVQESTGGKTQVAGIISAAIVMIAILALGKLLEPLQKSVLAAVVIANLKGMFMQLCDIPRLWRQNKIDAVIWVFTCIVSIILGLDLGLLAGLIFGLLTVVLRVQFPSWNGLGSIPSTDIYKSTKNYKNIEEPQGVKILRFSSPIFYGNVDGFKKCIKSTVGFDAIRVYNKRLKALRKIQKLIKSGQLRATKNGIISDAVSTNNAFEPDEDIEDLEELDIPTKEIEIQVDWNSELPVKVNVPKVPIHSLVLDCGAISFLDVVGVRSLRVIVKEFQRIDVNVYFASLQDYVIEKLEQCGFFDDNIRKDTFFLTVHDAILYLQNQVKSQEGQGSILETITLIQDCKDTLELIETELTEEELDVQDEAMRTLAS

CXCL12 = CXCL12 (human, UniProt P48061)
Chain of CXCL12 (P48061 22-89 limits assumed): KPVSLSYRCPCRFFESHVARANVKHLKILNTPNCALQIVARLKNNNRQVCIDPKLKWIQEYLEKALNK

LGALS1 = LGALS1 (human, UniProt P09382)
Chain of LGALS1 (P09382 2-135 limits assumed): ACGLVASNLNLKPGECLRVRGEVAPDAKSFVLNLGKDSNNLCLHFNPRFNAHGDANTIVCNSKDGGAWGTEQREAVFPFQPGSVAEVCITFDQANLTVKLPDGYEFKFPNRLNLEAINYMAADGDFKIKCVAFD

EGFR = EGFR (human, UniProt P00533)
[1] = target: SARS-CoV-2 full length Spike expressed on cells (SARS-CoV-2, UniProt P0DTC2 14-1273)

Measured: binding result

B1: Fc LALA-PG only construct with the ACE2 domain omitted (other)
chain: EPKSCDKTHTCPPCPAPEAAGGPSVFLFPPKPKDTLMISRTPEVTCVVVDVSHEDPEVKFNWYVDGVEVHNAKTKPREEQYNSTYRVVSVLTVLHQDWLNGKEYKCKVSNKALGAPIEKTISKAKGQPREPQVYTLPPSREEMTKNQVSLTCLVKGFYPSDIAVEWESNGQPENNYKTTPPVLDSDGSFFLYSKLTVDKSRWQQGNVFSCSVMHEALHNHYTQKSLSLSPGK
notes: also called control Fc (LALA-PG)
no binding: all assays above

Source: patent US20230293647A1 (AUTOLUS, published 2023)
